Columns and labels:
bovine LPL = test: Native PAGE binding to bovine LPL; conditions: 4 µM LPL with 18 µM GPIHBP1, 30 min on ice; Coomassie staining
Description: (§1) Distinct impacts of disordered acidic clusters in GPIHBP1
(§2) To confirm interactions between puri fi ed human GPIHBP11–131, G P IH B P 1 Cluster1-neutral, or GPIHBP1 Cluster2-neutral with human, mouse, and bovine LPL, these protein pairs were incubated for 30 min on ice (4 µM LPL with 18 µM GPIHBP1) before they were analyzed by native PAGE. As th ese concentrations were well above t he K D of 0.2 nM for the wildtype LPL•GPIHBP1 interaction, LPL is saturated with GPIHBP1 in these experiments (1). […]
(§3) spect r a for the purified GPIHBP1 variants wer e r ecor ded at 25°C in Helman cuvettes (path- length of 1 mm) with a scan rate of 50 nm/ min c ove r i ng the range of 190- 250 nm, averaging three scans for each protein. Spectra for the pr ote i ns were compared after converting to molar ellipticity using the following equation, […] where, Mw is the molecular weight of the protein, c is the protein concentration in g/l, l is the pat h-length of the cuvette, Nr number of amino acid residues in the protein.
(§4) Figure S1 : Binding of GPIHBP1 charge mutants to LPL as assessed by Native PAGE. The electrophoretic mobility of GPIHBP1 variants alone or in presence of purified human LPL ( A), b ovine LPL (B), and murine LPL (C) was assessed by native PAGE followed by Coomassie blue staining. […]

bLPL = test: PCSK3 cleavage of LPL (SDS-PAGE densitometry); assay type: biochemical, bovine; conditions: 20 μM bLPL, 25°C; for protection of LPL against ANGPTL4-induced cleavage by PCSK3 / protection of LPL against PCSK3 cleavage triggered by spontaneous unfolding: 0–240 min; for protection of LPL against PCSK3 cleavage triggered by spontaneous unfolding: 4 units PCSK3, without ANGPTL4, 25 μM GPIHBP1 variant
Description: To determine if charge-variants of GPIHBP1 confer distinct resistance to ANGPTL4-facilitated cleavage of LPL after Arg^324 by PCSK3 ([33]), we incubated purified bLPL (20 μM) with PCSK3 (4 units) for 0–240 min, either alone or in the presence of ANGPTL4 (2 μM) and/or GPIHBP1 (25 μM) at 25°C in 10 mM 2-(N-morpholino) ethane sulfonic acid (MES), 150 mM NaCl, 1 mM CaCl2, pH 7.0. We tested four different GPIHBP1 variants: GPIHBP1^1–131, GPIHBP1^Cluster1-neutral, GPIHBP1^Cluster2-neutral, and GPIHBP1^34–131 (LU domain only). PCSK3 cleavage was stopped by boiling in SDS-PAGE sample buffer (reduced and alkylated) and the degree of cleavage was assessed by SDS-PAGE using 12% Bis-Tris SDS-PAGE gels followed by densitometric scanning of the corresponding Coomassie blue–stained SDS-polyacrylamide gels.
Secretion of LPL by adipocytes is modulated in an autocrine manner by ANGPTL4. […] In the presence of endogenous ANGPTL4, a significant fraction of LPL was cleaved by PCSK3 in the trans-Golgi compartment. […] The presence of GPIHBP1 dramatically delayed PCSK3 cleavage of LPL ([33]). To assess the role of the acidic tail in GPIHBP1 on this delay, we incubated 20 μM bLPL with 4 units of PCSK3 either alone or in the presence of 2 μM ANGPTL4. We observed that the presence of sub-stoichiometric amounts of ANGPTL4 reduced the half-life of intact bLPL from 110 min to less than 5 min (Fig. 5A). […] Our results emphasized the essential role of GPIHBP1’s acidic tail in protecting LPL against ANGPTL4-induced cleavage by PCSK3.
Fig. 5 GPIHBP1 reduces ANGPTL4-facillitated PSCK3 cleavage of LPL. 20 μM bLPL was incubated with 4 units of PSCK3 for 0–240 min at 25°C and the extent of LPL cleavage after Arg^324 was assessed by densitometric scanning of Coomassie–blue stained polyacrylamide after SDS-PAGE of reduced and alkylated samples. A: PSCK3 cleavage of LPL is accelerated by the presence of 2 μM ANGPTL4—present at sub-stoichiometric amounts compared to bLPL (20 μM). 25 μM intact GPIHBP1, but not GPIHBP1^34–131 mitigates PSCK3 cleavage of LPL. B: Both GPIHBP1^Cluster1-neutral and GPIHBP1^Cluster2-neutral rescue LPL from cleavage by PSCK3 in the absence of ANGPTL4 and both are more efficient than GPIHBP1^34–131. C: in the presence of 2 μM ANGPTL4, 25 μM GPIHBP1^Cluster1-neutral protects LPL from PSCK3 cleavage more efficiently than the GPIHBP1^Cluster2-neutral, which indicates a more prominent role of acidic cluster 2 in protecting LPL from ANGPTL4-catalyzed unfolding and subsequent PSCK3 cleavage. Shown are the mean values (±SEM) for intact LPL relative to that present at time 0 min for 3–5 independent time-course experiments. Some curves appear in multiple panels to increase clarity.

human LPL = test: Native PAGE binding to human LPL; conditions: 4 µM LPL with 18 µM GPIHBP1, 30 min on ice; Coomassie staining
Description: as §1, §2, §3, §4

[1] = 4 units PCSK3, 2 μM ANGPTL4, 25 μM GPIHBP1 variant

B1: GPIHBP1^Cluster1-neutral: GPIHBP1 mutant with all Glu/Asp replaced by Gln/Asn at residues 1–17 (protein)
chain: QTQQQQQQQNQNHGPNNYDEEDEDEVEEEETNRLPGGGSRVLLRCYTCKSLPRDERCNLTQNCSHGQTCTTLIAHGNTESGLLTTHSTWCTDSCQPITKTVEGTQVTMTCCQSSLCNVPPWQSSRVQDPTG
modifications: Tyr18 sulfation present in less than 40%; one bi-antennary N-linked glycosylation; left off: uPAR domain III, N-terminal, cleaved
binding to bLPL as judged by native PAGE (bovine LPL): bound
protection of LPL against ANGPTL4-induced cleavage by PCSK3 (bLPL; [1]): significant protection
half-life of intact LPL (bLPL; 4 units PCSK3, 2 μM ANGPTL4, 25 μM GPIHBP1 variant, pH 7.0, less than 5 min without GPIHBP1): 25 min
protection of LPL against PCSK3 cleavage triggered by spontaneous unfolding (bLPL): prevented that cleavage completely
binding to hLPL as judged by native PAGE (human LPL): bound

B2: GPIHBP1^Cluster2-neutral: GPIHBP1 mutant with all Glu/Asp replaced by Gln/Asn at residues 19–30 (protein)
chain: QTQQEEEEEDEDHGPDDYNQQNQNQVQQQQTNRLPGGGSRVLLRCYTCKSLPRDERCNLTQNCSHGQTCTTLIAHGNTESGLLTTHSTWCTDSCQPITKTVEGTQVTMTCCQSSLCNVPPWQSSRVQDPTG
modifications: Tyr18 sulfation absent; one bi-antennary N-linked glycosylation; left off: uPAR domain III, N-terminal, cleaved
binding to bLPL as judged by native PAGE (bovine LPL): bound
protection of LPL against ANGPTL4-induced cleavage by PCSK3 (bLPL; [1]): marginal protection
protection of LPL against PCSK3 cleavage triggered by spontaneous unfolding (bLPL): prevented that cleavage completely
binding to hLPL as judged by native PAGE (human LPL): bound

From article PMC11869522, “Competitive displacement of lipoprotein lipase from heparan sulfate is orchestrated by a disordered acidic cluster in GPIHBP1” (Journal of Lipid Research, 2025)
